In paper PMC6017123, “HnRNPA1 Specifically Recognizes the Base of Nucleotide at the Loop of RNA G-Quadruplex”:

What was measured:
hnRNPA1 [1] = target: T1, hnRNPA1 (UniProt P09651 1-251+304-372, internal_change); assay: EMSA; 100 mM Na+; EMSA: 10 mM Tris-HCl pH 7.0, 100 mM NaCl, 0.1 mg/mL BSA, 5 mM DTT, 10% glycerol, 30 min room temperature; 8% native PAGE, 1x TBE + 20 mM NaCl, 80 V, 4 C; details: protein: recombinant; (pET-15b, Ni-NTA); label: 32P (T4 PNK, 5'); intermolecular dimeric parallel G-quadruplex, 2 strands
hnRNPA1 [2] = target: T1, hnRNPA1; assay: CD; peak shift 265 to 260 nm on protein addition; Na+; EMSA: 10 mM Tris-HCl pH 7.0, 100 mM NaCl, 0.1 mg/mL BSA, 5 mM DTT, 10% glycerol, 30 min room temperature; 8% native PAGE, 1x TBE + 20 mM NaCl, 80 V, 4 C; details: protein: recombinant; (pET-15b, Ni-NTA); label: 32P (T4 PNK, 5'); intermolecular dimeric parallel G-quadruplex, 2 strands

T1 sequence (P09651 other isoform, or with tags, fused parts or gaps): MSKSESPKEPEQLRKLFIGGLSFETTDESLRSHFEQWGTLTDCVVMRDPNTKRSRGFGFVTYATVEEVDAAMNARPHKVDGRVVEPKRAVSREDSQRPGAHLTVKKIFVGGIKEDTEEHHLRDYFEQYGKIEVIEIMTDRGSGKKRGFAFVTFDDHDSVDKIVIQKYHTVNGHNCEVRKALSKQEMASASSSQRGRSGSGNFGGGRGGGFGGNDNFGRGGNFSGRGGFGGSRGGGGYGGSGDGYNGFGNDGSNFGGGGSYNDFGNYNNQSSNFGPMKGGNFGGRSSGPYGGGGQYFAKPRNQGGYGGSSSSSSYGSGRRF

UUAGGGUUAGGG (structured_RNA) [Native-RNA-Gq]: binds (hnRNPA1 [1]).

UUAGGGUUAGGG (XNA, 2'-O-methyl at positions 7-9 (UmUmAm)) [2'-O-Me-loop-Gq]: binds (hnRNPA1 [2]).
